Measurements taken from PMC9541495, “Understanding the interaction of 14‐3‐3 proteins with hDMX and hDM2: a structural and biophysical study” (The Febs Journal, 2022).
[ ]: non-standard residue; d: D form. pS = N[C@@H](COP(=O)(O)O)C(=O)O; FAM = 5,6-carboxyfluorescein; Ahx = NCCCCCC(=O)O

T1: 14‐3‐3σ (human, UniProt P31947 1-248)
T1 construct: 14-3-3 sigma, human, full-length protein from the pProEx HTb-His-14-3-3 construct (used in the FA assays); Written as the protomer; tag removal is told only for the ∆C proteins; source: E. coli BL21(DE3), purified (Ni2+-NTA, dialysis)
T1 sequence (looked up): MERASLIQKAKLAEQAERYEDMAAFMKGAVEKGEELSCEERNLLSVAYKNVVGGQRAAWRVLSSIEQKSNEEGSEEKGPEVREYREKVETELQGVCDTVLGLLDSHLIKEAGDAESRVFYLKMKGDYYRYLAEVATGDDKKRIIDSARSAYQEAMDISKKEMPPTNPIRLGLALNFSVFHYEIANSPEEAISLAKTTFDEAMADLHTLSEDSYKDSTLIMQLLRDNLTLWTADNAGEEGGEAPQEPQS

T2: 14‐3‐3ζ (human, UniProt P63104 1-245)
T2 construct: 14-3-3 zeta, human, full-length protein from the pProEx HTb-His-14-3-3 construct; Written as the protomer; tag removal is told only for the ∆C proteins; source: E. coli BL21(DE3), purified (Ni2+-NTA, dialysis)
T2 sequence (looked up): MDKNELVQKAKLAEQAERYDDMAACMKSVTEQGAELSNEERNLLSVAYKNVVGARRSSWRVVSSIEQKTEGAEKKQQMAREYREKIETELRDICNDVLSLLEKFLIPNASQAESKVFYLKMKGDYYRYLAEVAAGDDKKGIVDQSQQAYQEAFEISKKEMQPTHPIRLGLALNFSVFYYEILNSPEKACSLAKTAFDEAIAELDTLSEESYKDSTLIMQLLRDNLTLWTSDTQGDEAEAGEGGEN

T3: 14‐3‐3β (human, UniProt P31946 1-246)
T3 construct: 14-3-3 beta, human, full-length protein from the pProEx HTb-His-14-3-3 construct; Written as the protomer; tag removal is told only for the ∆C proteins; source: E. coli BL21(DE3), purified (Ni2+-NTA, dialysis)
T3 sequence (looked up): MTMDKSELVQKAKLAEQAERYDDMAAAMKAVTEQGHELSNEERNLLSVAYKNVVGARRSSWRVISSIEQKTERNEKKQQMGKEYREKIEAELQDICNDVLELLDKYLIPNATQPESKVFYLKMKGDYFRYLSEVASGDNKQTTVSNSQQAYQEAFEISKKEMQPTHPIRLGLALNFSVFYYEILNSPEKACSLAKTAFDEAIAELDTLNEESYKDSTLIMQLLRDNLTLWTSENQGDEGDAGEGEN

T4: 14‐3‐3τ (human, UniProt P27348 1-245)
T4 construct: 14-3-3 tau/theta, human, full-length protein from the pProEx HTb-His-14-3-3 construct; Written as the protomer; tag removal is told only for the ∆C proteins; also called τ/θ; source: E. coli BL21(DE3), purified (Ni2+-NTA, dialysis)
T4 sequence (looked up): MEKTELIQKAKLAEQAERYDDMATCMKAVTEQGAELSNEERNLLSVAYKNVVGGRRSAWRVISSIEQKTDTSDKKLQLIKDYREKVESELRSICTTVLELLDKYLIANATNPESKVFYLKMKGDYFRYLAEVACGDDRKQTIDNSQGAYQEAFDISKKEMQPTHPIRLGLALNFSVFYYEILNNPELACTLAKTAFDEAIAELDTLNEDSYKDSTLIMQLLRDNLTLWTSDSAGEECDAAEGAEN

T5: 14‐3‐3γ (human, UniProt P61981 1-247)
T5 construct: 14-3-3 gamma, human, full-length protein from the pProEx HTb-His-14-3-3 construct; Written as the protomer; tag removal is told only for the ∆C proteins; source: E. coli BL21(DE3), purified (Ni2+-NTA, dialysis)
T5 sequence (looked up): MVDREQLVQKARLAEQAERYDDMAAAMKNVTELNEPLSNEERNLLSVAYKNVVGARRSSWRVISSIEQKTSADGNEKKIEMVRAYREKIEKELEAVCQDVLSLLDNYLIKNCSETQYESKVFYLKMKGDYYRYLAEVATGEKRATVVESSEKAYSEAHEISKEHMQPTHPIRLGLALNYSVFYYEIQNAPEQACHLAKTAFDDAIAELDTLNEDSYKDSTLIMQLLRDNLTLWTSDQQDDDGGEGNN


Columns and labels:
Assay in all cases: fluorescence polarisation; fluorescence anisotropy, direct titration: 14-3-3 protein titrated (1/2 dilution series) against 50 nM FAM-Ahx tracer peptide; 10 mM HEPES, 150 mM NaCl, 0.1% Tween 20, 0.1% BSA, pH 7.4; 384 well plates, triplicates; protein concentration as 14-3-3 monomer; 1:1 fit, biphasic curves fitted as two separate 1:1 events (Kd1, Kd2)
Conditions in all cases: both partners purified
14‐3‐3σ = target: T1, 14‐3‐3σ
14‐3‐3ζ = target: T2, 14‐3‐3ζ
14‐3‐3β = target: T3, 14‐3‐3β
14‐3‐3τ = target: T4, 14‐3‐3τ
14‐3‐3γ = target: T5, 14‐3‐3γ

Row | Kd (14‐3‐3σ) [µM] | Kd (14‐3‐3ζ) [µM] | Kd (14‐3‐3β) [µM] | Kd (14‐3‐3τ) [µM] | Kd (14‐3‐3γ) [µM] | Binder
1 | 32.7 ± 1.4 | 19.6 ± 0.2 | 11.1 ± 0.5 | 29.3 ± 2.4 | 3.9 ± 0.3 | {FAM-Ahx}-SRRRAI[pS]ETEEN-NH2 (hDM2 (human double minute 2 protein), human, residues 160-171; Tracer form used in the FA assays; also called hDM2_(160‐171) ^Ser166; source: synthetic peptide (Fmoc SPPS, HPLC purified)) [FAM‐Ahx‐hDM2_(160‐171) ^pSer166]
2 | 3.6 ± 0.4 | 0.92 ± 0.03 | 0.51 ± 0.02 | 1.2 ± 0.2 | 0.53 ± 0.04 | {FAM-Ahx}-DCRRTI[pS]APVVRPK-NH2 (Tracer form used in the FA assays; source: synthetic peptide (Fmoc SPPS, HPLC purified)) [FAM‐Ahx‐hDMX_(361‐374) ^pSer367]
3 | 136 ± 3.6 | 95.8 ± 3.6 | 49.4 ± 11.5 | 108 ± 6 | 37.8 ± 0.7 | {FAM-Ahx}-SKLTHSL[pS]TSDITAI-NH2 (hDMX (human double minute 4 protein, hDM4), human, residues 335-349; Tracer form used in the FA assays; source: synthetic peptide (Fmoc SPPS, HPLC purified)) [FAM‐Ahx‐hDMX_(335‐349) ^pSer342]
4 | > 170 | 166 ± 5.6 | 208 ± 6.3 | > 250 | 82.9 ± 2.1 | {FAM-Ahx}-QRKRHK[pS]DSISLS-NH2 (hDM2 (human double minute 2 protein), human, residues 180-192; Tracer form used in the FA assays; source: synthetic peptide (Fmoc SPPS, HPLC purified)) [FAM‐Ahx‐hDM2_(180‐192) ^pSer186]
